From paper PMC3470471 (Circulation research, 2012)

Molecular target: the molecule itself
Experiment: cross-linking

B1: myosin light chain 1 (rat cardiac myofibrils) (natural protein)
chain: not shown
With B1 the “stoichiometry N” value was 2.
